Data from publication PMC9177416, “Discovery of non-squalene triterpenes” (Nature, 2022).

Molecular target: the molecule itself
Test: cryo-EM structure; non-cross-linked full-length MpMS, unliganded, 50 uM in 20 mM HEPES pH 7.5, 150 mM NaCl, 1 mM DTT; only the PT domain reconstructed; map resolution 3.17 Å

B1: Macrophomina phaseolina macrophomene synthase (enzyme, Macrophomina phaseolina MS6, UniProt K2SUY0 1-698, looked up)
chain: MCNTKCYNTLAKMTVITEPAMEYMYSVPLDESEYDKCGFCQDPRYRPRRHKDQHLARAGSAKAKELCEALIGVYPRPTCESAVGHSIALVMPECMPGRVEAMGEFMESIFYMDNIAESGSQQDTGNLGTEWANDMETGPTTSVNSNTGAKQVMAKLALQLLSIDPVCAGNVMKAWKEWAAGFAKPRRFDSIEQYIDYRLVDSGAIVAVHLMNFGMGLDISVEELREVSDIVNHAGKALSYQNDFFSFNYEHDMFVKLPDSIGIANAVFVLAETEGLSLAEAKERVKELAKEHEDAVLRLKDEVESKVSYKLRICLEGLVDMVVGNLVWSASCDRYSSYRREKHQMELPIRIQGPPTPPQEPVYEKATLPNGKQLDAPTESSGKDLSDGVATLSGDEPVLGDEIVSAPIKYLESLPSKGFREAIIDGMNGWLNLPARSVSIIKDVVKHIHTASLLCDDIEDSSPLRRGQPSAHIIFGVSQTVNSTSYLWTLAIDRLSELSSPKSLRIFIDEVRKMQIGQSFDLHWTAALQCPSEEEYLSMIDMKTGGLFHLLIRLMIAESPRKVDMDFSGLVSMTGRYFQIRDDLSNLTSEEYENQKGYCEDLDEGKYSLPLIHALKHTKNKVQLESLLIQRKTQGGMTLEMKRLAIQIMKEAGSLEHTRKVVLELQDAVHRELAKLEEAFGQENYVIQLALERLRIKA
notes: codon-optimized synthetic gene cloned NdeI/EcoRI into pET28a (pRC088); Used without cross-linking in one cryo-EM sample and cross-linked with 0.06% glutaraldehyde in another; Only the PT domain (plus one TC helix in the cross-linked sample) could be modelled; also called MpMS; MPH_02178; source: E. coli BL21(DE3), purified (Ni-NTA, Resource Q anion exchange, Superose 6 size exclusion)
With B1 the “stoichiometry N” value was 6.
